In the nanobody polyreactivity screen of Harvey et al. (2022):

Experiment: yeast display, Sf9 membrane polyspecificity reagent, FACS + sequencing; frameworks hold sequencing errors
Procedure, shortened: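 Nanobodies from a synthetic yeast display library (Saccharomyces cerevisiae BJ5465), induced 36–48 hours with galactose, were stained 1 hour at 4 °C with 10% biotinylated, detergent-solubilized Sf9 membrane reagent, enriched on streptavidin microbeads, then FACS-sorted. Anti-HA (expression) and streptavidin (reagent binding) fluorescence set low and high (top ~1%) gates. Polyreactivity labels come from the gate of origin. Genes were colony-PCR amplified, MiSeq 2 × 250 sequenced and filtered by CDR length.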

Sequence	polyreactivity (PSR sort gate)
QVQLVESGGGLVQAGGSLRLSCAASGFTLFTNAMGWYRQAPWKERELLARISRGGSTKYADSVKGRFTISRDNAKNTVYLQMNSLKREDTAVYSCATGYYGYRYGYWGQGTQVTVSS	high polyreactivity
QVHLVESGGGLDQAGGSLRLSCAASGSTDGPYARGWSRQATGKERELVATINSSGSTNYADSLKGRFTISRDNAKNTVYLQMHSLKTEDTAVYYSASLHSYYWNDYWGQGTQVTVSS	low polyreactivity
QVQLVESGGGLVQAGGSLRLSCAASGRTFQFYAMGWYRPAPGKERELVAAITYSGDSTYYADSVKGRFTISRDNAKNTVYLQMNSLKPEDTAVYYCAAGVWFYWYEYDYWGQGTQVTVSS	high polyreactivity
QVQLVESGGALVQAGGSLRLSCAASGSIYGGYTMGWYRHAPGKEMEFVAAISRRGGNTYYADSVKGRFTISRDNAKNTVYLQMNSLKPEDTAVYYCAVRWPSARIQVKLDYWGQGTQVTVSS	high polyreactivity
QVQLVESGGGLVQAGGSLRLSCAASGSIFVGYAMGWYRQAPGKERELVAAISSNGGSTYYADSVKGRFTISRDNAKNTVYLQMNSLKPEDTAVYYCAKDYTYSFGRSLDYWGQGTQVTVSS	low polyreactivity
QVQLVESGGGLVQAGGRLRLSCAASGSTFKSYVMGGSRQAPGKERELVAAISSGDSTYYADSVKGRFTISRDNAKNTVNLQMNSLKPEDTAVYYCAADPGYTVEPWEDDYWGQGTQVTVSS	low polyreactivity
QVQLVESGGGLVQAGGSLRLSCAASGRIFIYNDMGWYRQAPGKERELVAAITFIDDSTNYADSVKGRFTISRDNAKYSVYLQMNRLKPEDTAVYYCAARLYSSASGVRWIKFDYWGQGTQVTVSS	low polyreactivity
QVQLVESGGGLVQAGGSLRLSCAASGSIVGYYFMGWYRQAPGKERELVAAITRSGSTYYADSVKGRFTISRDNEKNTVYLQMNSLKPEDTAVYYCAADGSYYWYTHTTYDYWGQGTQVTVSS	low polyreactivity
QVQLVESGGGLVQAGGSLRLSCAASGIIFYDYAMGWYRQAPGKERELVAAISRSGGSTYYADSVKGRFTISRDNATNTVYLQMNSLKPEDTAVYYCNADEVVWGYNYWGQGTQVTVSS	low polyreactivity
QVQLVDSGGGLVQAGGSLRLTCAASGKIFVPNAMGWNRQAPGKERELVAAIRRGGSTNYADSVKGRFTISRDNAKNSVYLQMNSLKPEDTAVYYCAKSRVSFTDLVGYYWGQGTQVTVSS	low polyreactivity
QVQLVESGGGLVQAGGSLRLSCAASGSTFPYYAMGWYRQAPGKERELVAAISKSGGSTYYADSVKGRFTISRDNAKNTVYLQMNSLKPEDTAVYYCAAGPRYRYYSGWYDYWGQGTQVTVSS	high polyreactivity
QVQLVESGGGLVQAGGSLRLSCAASGFTCTSNAMGWYRQAPGKERELVAAITFTGGRTYYADSVKGRFTISRDNAKNTVYLQMNSLKPEDTAVYYCNRVTAYYPTKFDYWGQGTQVTVSS	high polyreactivity
QVQLVESGGGLLRAGGSLRLICADSAFVNYVMGWYRQAPGKERELVAAISKGGGRTYYADSVKGRFTISRDNAKNTVYLQMNSLKPEVTAVYYCNADGGLPKYDYWGQGTQVTVSS	high polyreactivity
QVQLVESGGGLVQAGCSLRLTCAASGSTFKKYAKGWYRQAPGKERDFVAAISRGGRTYYAYSVKGRFTISRDNAKNTVYLQMNSLKPEDTAVYYCAAETFGYQEVYFWGQGTQVTVSS	high polyreactivity
QVQLVESGGGLVQAGGSLRLSCAASGSIFRYYAMGWYRQAPGKERELVASITRRGGSTYYADSVKGRFTISRDNAKNTVYLQMNSLKPEDTAFYYCAAHKTYVREYYWGQGTQVTVSS	high polyreactivity
QVQLVESGGGLVQAGGSLRLSCAASGRIFWPNTMGWYRQAPGKERELVATITSTGTRTYYADSVKGRFTISRDNAKNTVYLQMNSLNPEDTAVYYCNARGYYRPDRPTRRNRFDYWGQGTQVTVSS	high polyreactivity

Sequence	polyreactivity (PSR sort gate)
QVQLVESGGGLVQAGGSLRLTCAASGSIVDANAMGLYRQAPGKERELVAAISSGDSTSYADSVKGRFTISRDNAKNTVYLQLNSLNPEDTAVYYCNAYVDSQGGFTLKHDYWGQGTQVTVSS	low polyreactivity
QVQLVESGGGLDQAGGSLRLSCPASGITFGYNDMGRYRQAPGKERELVAAINRGASTYYADSVKGRFTISRDNAKNTVYLQMYSLKPEDTAVYYCNADHRDTFIWVGLPHMDYWGQGTQVTVSS	low polyreactivity
QVQLVESGGGLVQAGGSLRLSCAASGSTFWIYTMGWYRQAPGKERELVAAITWSGGRTYYADSVKGRFTISRDNAKNTVYLQMNSLKPEDTAVYYCNADVYSYRPSTIQRYVLFDYWGQGTQVTVSS	low polyreactivity
QVQLVESGGGLVQAGGSLRLSCAASGRIFYRNAMGWYRQAPGKERELVAAIRGGDNTYYADSVKGRFTISRDNAKNTVYLQMNSLKPEDTAVYYCAARSYRLDSYYWGQGTQVTVSS	high polyreactivity
QVQLVESGGGLVQAGGSLRLSCAASGRIFDGNAMGWDRPAPGKERELVADISVTGGSTYYADSVKGRFTISRDNAKNTVYLQMNSLKPEDTAVYYCNAYPFSRSVQLRDYWGQGTQVTVSS	low polyreactivity
QVQLVESGGGLVQAGGSLRLSCAASGIIFYDYAMGWYRQAPGKERELVAAIDTGDSTYYADSVKGRFTISRDNAKKTVDLQMNSLKPEDTAVYYCAADYIFYTYIFYWGQGTQVTVSS	high polyreactivity
QVQLVESGGGLVQAGGSLRLSCAASGRIFKTYAMGWYRPAPGTERELVAGISWRGGSTYYADSVKGRFTISRDNAKNTVYLQMNSLKPEDTAVYYCAADDTYTRYDYWGQGTQVTVSS	high polyreactivity
QVQLVESGGGLVQPGGSLRLSCSASGSIFRVYGMGWYRQAPGKERELVAAITWSGGSTYYADSVKGRFSISRDKAKNTVYLQQNSLKPEDTAVYYCAARARPRYYRPPYDYWGQGTQVTVSS	high polyreactivity
QVQLVESGGGLVQAGGSLRLSCAASGRTFGQYVMGWYRQAPGKERELVAAIRSGGSTYYADSVKGRFTISRDNAKNTVYLQMNSLKPEDTAVYYCAKETYYGTDNFGQVGGEMDYWGQGTQVTVSS	low polyreactivity
QVQLVESGGGLVQAGGSLRLSCAASGRIFFIYVMGWYRQAPGKERELVAGITRGGSTNYADSVKGRFTISRDNAKNTVYLQMNSLKPEDTAVYYCAAAVLSYRHAHAGYYYGKGDYWGQGTQVTVSS	high polyreactivity
QVQLVESGGGLVQAGGSLRLSCAASGRIFVGYAMGWYRQAPGKERELVAAITKSGGRTYYADSVKGRFTISRDNAKNTVYLQMNSLKPEDTAVYYCAVLNSKWNEYDYWGQGNQVTVSS	high polyreactivity
QVQLVESGGGLVQAGGSLRLTCAASGFIFGSYSMGWYRQAPGKERELVAAITSGGSTYYADSVKGRFTISRDNAKNTVYLQMNSLKPEDTAVYYCAKYHWRLSFSRYPYDYWGQGTQVTVSS	high polyreactivity
QVQLVESGGGLVQAGGSLRLSCAASGSIFPHYAMGWYRQAPGKERELVAAISRGGSTNYADSVKGRFTISRDNAKNTVYLQMNSLKPEDTAVYYCAAQGNRYANDYWGQGTQVTVSS	high polyreactivity
QVQLVESGGGLVQAGGSLRLSCAASGIIFFRNAMGWYRQAPGNERELVATITSGVSTNYADSVKGRFTISRDNAKNTVYLQKNSLKPEDTAVYYCATEGFPFYDFDYWGQGTQVTVSS	high polyreactivity
QRQLVESGGGLVQAGGSLRLSCAASGFIFDSNAMGRYRQEPGKERELVAAFAARGGSTYYADSVKGRFTISRDYAKHTLYLQMNSLKPEETAVYNCNAVYIVGGYWGQGTQVTVSS	high polyreactivity
QVQLVESGGGLVQAGGSLRLSCAASGSIFYRYALGWYRQAPGKEREFVAGITTRGGSTYYADSVKGRFTISRDNAKNTVYFQMNCLKPEDTAVYDCAASSRVWPNFGYWGQGTQVTVSS	high polyreactivity
